Results on 1 molecule are retold here after publication PMC6421079.

The Ki is the equilibrium dissociation constant of an inhibitor or competing ligand from its target. A high value points to lower affinity.

The test concerns the target Rubiscolin-6 (Spinacia oleracea). The experiment in a line: [3H]DPDPE displacement radioligand binding.

B1: Delta opioid receptor, P41143 (protein)
chain: MEPAPSAGAELQPPLFANASDAYPSACPSAGANASGPPGARSASSLALAIAITALYSAVCAVGLLGNVLVMFGIVRYTKMKTATNIYIFNLALADALATSTLPFQSAKYLMETWPFGELLCKAVLSIDYYNMFTSIFTLTMMSVDRYIAVCHPVKALDFRTPAKAKLINICIWVLASGVGVPIMVMAVTRPRDGAVVCMLQFPSPSWYWDTVTKICVFLFAFVVPILIITVCYGLMLLRLRSVRLLSGSKEKDRSLRRITRMVLVVVGAFVVCWAPIHIFVIVWTLVDIDRRDPLVVAALHLCIALGYANSSLNPVLYAFLDENFKRCFRQLCRKPCGRPDPSSFSRAREATARERVTACTPSDGPGGGAAA
Molecule B1 showed a Ki of 1 µM.
